Results from paper PMC3098719 (Molecular cell, 2008).

Assays:
[1] = biological target: Kae1 (M. jannaschii Kae1, residues 1-328 of MJ1130) (Methanocaldococcus jannaschii, UniProt Q58530); assay: ATP-binding assay
[2] = biological target: T1, GST-Kae1 T88R (M. jannaschii) (Methanococcus jannaschii, UniProt Q58530 1-328, T88R); assay: pull-down
T1 sequence (looked up): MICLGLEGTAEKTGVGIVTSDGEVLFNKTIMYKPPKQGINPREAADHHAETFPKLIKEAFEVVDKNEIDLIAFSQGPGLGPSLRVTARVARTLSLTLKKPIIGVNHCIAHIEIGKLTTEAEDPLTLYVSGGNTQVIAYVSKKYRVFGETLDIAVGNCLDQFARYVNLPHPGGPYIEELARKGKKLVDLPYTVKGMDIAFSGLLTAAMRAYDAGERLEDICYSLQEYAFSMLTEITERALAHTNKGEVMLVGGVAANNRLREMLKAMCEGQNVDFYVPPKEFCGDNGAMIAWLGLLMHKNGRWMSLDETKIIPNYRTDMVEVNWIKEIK

[3] = biological target: T2, GST-Kae1 T88R/T92R (M. jannaschii) (Methanococcus jannaschii, UniProt Q58530 1-328, T88R | T92R); assay: pull-down
T2 sequence (looked up): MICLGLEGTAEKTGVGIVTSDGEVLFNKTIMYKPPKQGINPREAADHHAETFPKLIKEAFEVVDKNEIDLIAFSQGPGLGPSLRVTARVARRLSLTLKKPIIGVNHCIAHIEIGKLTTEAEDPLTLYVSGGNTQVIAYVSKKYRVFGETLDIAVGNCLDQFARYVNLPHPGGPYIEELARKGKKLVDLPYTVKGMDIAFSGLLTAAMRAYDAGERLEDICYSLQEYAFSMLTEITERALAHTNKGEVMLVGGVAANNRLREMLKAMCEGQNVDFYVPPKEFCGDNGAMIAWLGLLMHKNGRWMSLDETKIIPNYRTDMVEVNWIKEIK

[4] = biological target: T3, GST-Kae1 T88R/R91E (M. jannaschii) (Methanococcus jannaschii, UniProt Q58530 1-328, T88R | R91E); assay: pull-down
T3 sequence (looked up): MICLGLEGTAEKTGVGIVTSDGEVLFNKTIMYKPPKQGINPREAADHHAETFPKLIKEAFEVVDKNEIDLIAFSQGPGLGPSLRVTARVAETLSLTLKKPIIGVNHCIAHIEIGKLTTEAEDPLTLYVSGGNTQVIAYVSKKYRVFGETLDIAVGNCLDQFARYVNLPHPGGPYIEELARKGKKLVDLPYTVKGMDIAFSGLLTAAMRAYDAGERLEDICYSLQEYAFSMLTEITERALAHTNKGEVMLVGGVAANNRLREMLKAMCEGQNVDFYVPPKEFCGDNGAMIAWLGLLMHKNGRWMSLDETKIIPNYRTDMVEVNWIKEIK

[5] = biological target: T4, GST-Kae1 (residues 1-328 of Methanococcus jannaschii MJ1130) (Methanococcus jannaschii, UniProt Q58530 1-328); assay: pull-down
T4 sequence (looked up): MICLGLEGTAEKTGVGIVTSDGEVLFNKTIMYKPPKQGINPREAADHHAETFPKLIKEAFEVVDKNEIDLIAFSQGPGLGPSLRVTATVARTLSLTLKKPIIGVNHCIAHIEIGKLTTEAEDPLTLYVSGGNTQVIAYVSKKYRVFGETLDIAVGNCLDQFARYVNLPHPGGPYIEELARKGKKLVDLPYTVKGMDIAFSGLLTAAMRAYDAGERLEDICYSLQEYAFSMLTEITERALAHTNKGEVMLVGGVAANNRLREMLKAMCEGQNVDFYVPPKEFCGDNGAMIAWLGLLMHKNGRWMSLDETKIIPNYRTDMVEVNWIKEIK

Nc1ncnc2c1ncn2[C@@H]1O[C@H](COP(=O)(O)OP(=O)(O)OP(=O)(O)O)[C@@H](O)[C@H]1O [ATP]
Kd [1]: 27 µM

B1: Bud32 (residues 328-535 of Methanococcus jannaschii MJ1130), untagged (domain or fragment, UniProt Q58530 328-535, looked up)
chain: KGKKRKIPEHLIGKGAEADIKRDSYLDFDVIIKERVKKGYRDERLDENIRKSRTAREARYLALVKDFGIPAPYIFDVDLDNKRIMMSYINGKLAKDVIEDNLDIAYKIGEIVGKLHKNDVIHNDLTTSNFIFDKDLYIIDFGLGKISNLDEDKAVDLIVFKKAVLSTHHEKFDEIWERFLEGYKSVYDRWEIILELMKDVERRARYVE
binding result [2]: binds
binding result [3]: binds
binding result [4]: binds
binding result [5]: binds
